# Assay results published in publication PMC4277816 (Chemical communications (Cambridge, England), 2014).
# Square brackets hold non-standard residues; d marks the D form. Peptide text beside a SMILES is read from it. * marks the point of attachment. X2 = O=C(O)C(CCCCN*)N1CCCN2CCN(CCCN(CP(=O)(O)O)CC2)CC1; PEG4 = NCCOCCOCCOCCOCCC(=O)O; X1 = O=C(/C=C/c1ccccc1)*
# Assay: serum stability of 64Cu-labelled cFlFlF peptide–chelate conjugates
# Type: in vitro ADME
# Conditions: compared with the 64Cu–CB-TE1A1P peptide, result in words (Fig. S2b, ESI)
structure (smiles),measurement,value
"CC(C)C[C@@H](NC(=O)[C@H](Cc1ccccc1)NC(=O)[C@@H](CC(C)C)NC(=O)[C@H](Cc1ccccc1)NC(=O)/C=C/c1ccccc1)C(=O)N[C@@H](Cc1ccccc1)C(=O)NCCOCCOCCOCCOCCC(=O)NCCCCC(C(=O)O)N1CCCN2CCN(CCCN(CP(=O)(O)O)CC2)CC1 (stereo partly drawn) [64Cu–CB-TE1K1P peptide, metal not drawn] (X1-F[dL]F[dL]F[PEG4]-X2; N-terminus assumed)",serum stability,better serum stability
